Test results: patent US20190185531A1

Key:
Experiment in all cases: competition fluorescence anisotropy against fluoresceinated Bim BH3
[1] = molecular target: T1, Bcl-w (c-myc-tagged) (human) (UniProt Q92843)
T1 sequence (looked up): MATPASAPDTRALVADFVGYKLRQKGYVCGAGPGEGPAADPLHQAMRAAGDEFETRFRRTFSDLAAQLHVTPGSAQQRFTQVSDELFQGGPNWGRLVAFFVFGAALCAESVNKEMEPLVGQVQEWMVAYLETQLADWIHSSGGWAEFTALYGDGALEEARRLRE

[2] = molecular target: Bcl-xL (c-myc-tagged) (human) (UniProt Q07817)
[3] = molecular target: human Mcl-1 (c-myc-tagged) (human) (UniProt Q07820)
human Mcl-1 (c-myc-tagged) (human), sequence (Q07820 172-327 limits assumed): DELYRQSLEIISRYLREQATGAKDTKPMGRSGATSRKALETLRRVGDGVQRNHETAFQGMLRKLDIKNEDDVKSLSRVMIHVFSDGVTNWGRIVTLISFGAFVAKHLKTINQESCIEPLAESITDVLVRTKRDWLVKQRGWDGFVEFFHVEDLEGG

[4] = molecular target: Bcl-2 (c-myc-tagged) (human) (UniProt P10415)
Bcl-2 (c-myc-tagged) (human), sequence (P10415 1-217 limits assumed): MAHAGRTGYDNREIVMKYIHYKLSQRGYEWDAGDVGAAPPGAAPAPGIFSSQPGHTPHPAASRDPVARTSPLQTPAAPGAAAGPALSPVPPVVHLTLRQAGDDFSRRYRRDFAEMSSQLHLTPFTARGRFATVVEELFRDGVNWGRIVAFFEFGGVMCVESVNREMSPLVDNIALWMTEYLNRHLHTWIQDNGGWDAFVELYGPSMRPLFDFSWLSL

Bcl-xL (c-myc-tagged) (human), sequence (Q07817 1-209): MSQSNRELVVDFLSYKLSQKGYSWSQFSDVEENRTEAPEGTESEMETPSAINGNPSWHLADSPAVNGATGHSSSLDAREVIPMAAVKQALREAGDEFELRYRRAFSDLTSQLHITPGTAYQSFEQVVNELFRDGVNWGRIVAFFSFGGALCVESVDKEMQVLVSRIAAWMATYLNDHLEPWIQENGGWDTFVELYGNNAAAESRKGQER

fold specificity for Bfl-1 relative to this protein [1]: > 150 fold
fold specificity for Bfl-1 relative to this protein [2]: > 150 fold
fold specificity for Bfl-1 relative to this protein [3]: > 150 fold
fold specificity for Bfl-1 relative to this protein [4]: > 150 fold
Binder: Ac-QWVREIAAGLRLAADNVNAQLER-NH2 [FS1]
